# Substitutions are numbered along the chain they refer to. Numbers in names are those of the source.
# B1: H1H27729P-N297Q (antibody, human IgG1, V domains shown)
# VH: QVQLVESGGGLVKPGGSLRLSCAASGFIFSDYYMSWIRQAPGKGLEWVSYISSSGTTIYGDSVKGRFTMSRDNAKNSLYLQMNSLRAEDTAVYYCARNYALFDYWGQGTLVTVSS
# VL: DIQMTQSPSSLSASVGDRVTITCQASQDISKYLNWYQQKPGKAPKLLIYYTSNLETGVPSRFSGSGSGTDFTFTISSLQPEDIATYYCHQSDYLPFTFGPGTKVDIKR
# B2: H1H27734P-N297Q (antibody, human IgG1, V domains shown)
# VH: EVQLVESRGGLVQPGGSLRLSCAASGFTFSSYAMSWVRQAPGKGLEWVSAISGSGGSTFYADSVKGRFTISRDNSKNTVYLQMNSLRAEDTAVYYCAKALVLRFLEWLGDYWGQGTLVTVSS
# VL: DIQMTQSPSTLSASVGDRVTITCRASQSISSWLAWFQQKPGKAPKLLIYKASSLESGVPSRFSGSGSGTEFTLTISSLQPDDFATYYCQQYKSYWTFGQGTKVEIKR
# B3: H1H27739P-N297Q (antibody, human IgG1, V domains shown)
# VH: EVQLVESGGGLVQPGGSLRLSCTASGFTFSSYAMSWVRQAPGKGLEWVSAISGTGSSTYFTDSVKGRFAISRDNSKNTLYLQMNSLRAEDTAVYYCAKDGEWLSTVTLFDYWGQGTLVTVSS
# VL: EIVMTQSPATLSVSPGERATLSCRASQSVSSNLAWYQQKPGQAPRLLIYGASTRATGIPARFSGSGSGTDFTLTISSLQSEDFALYYCQQYFIWPPHPTFGPGTKVDIKR
# B4: H1H27747P-N297Q (antibody, human IgG1, V domains shown)
# VH: QVQLVESGGAVVQPGRSLRLSCAASGFTFSYYGMHWVRQAPGKGLEWVAVISYDGSKKYYADSVKGRFTISRDNSKNTLYLQMNSLRAEDTAVYYCAKDLTVDFYYGMDVWGQGTTVTVSS
# VL: DIQMTQSPSSVSASVGDRVTITCRASQGISSWLAWYQQKPGKAPKLLIYATSSLQSGAPSRFSGSGSGTDFTLTISSLQPEDFATYFCQQANSFPYTFGQGTKLEIKR
# B5: H1H27754P-N297Q (antibody, human IgG1, V domains shown)
# VH: EVQLVESGGGLVQPGGSLRLSCAASGFTFRTYAMTWVRQAPGKGLDWVSAITGDGGNTYYADSVKGRFTISRDNSKNTLYLQMNSLRAEDTAIYYCAKDQRFSFALYYFDYWGQGTLVTVSS
# VL: B4 VL with K42N, T51A, S52F, A58V, F87Y, S93N, Y96W, L104V
# B6: H1H21227N-N297Q (antibody, human IgG1, V domains shown)
# VH: QVQLVQSGAEVKKPGASVKVSCKVSGYTLTELSIHWVRQVPGKGLEWMGGFDPEEGETIFAQEFRDRVTLTEDTSPDTAYMELSSLKSEDAAVYYCTTPRYCNNGICYDYWGQGTLVTVSS
# VL: DIQMTQSPSSLSASVGDRVTITCRASQSISNYLNWYQQKPGKAPKLLIYTASSLQSGVPSRFSGSGSGTDFTLTISSLQTEDFATYYCQQSYSNFPITFGQGTRLEIKR
# B7: H1H21234N-N297Q (antibody, human IgG1, V domains shown)
# VH: QVQLQESGPGLVKPSETLSLTCTVTGGSISRNYWSWIRQPPGKGLEWIGYIYYSGSIDYNPSLKSRVTISVDTSKNQFSLKLSSMTAADTAVYYCARDRWNWKYGMDVWGQGTTVIVSS
# VL: EIVLTQSPGTLSLSPGERATLSCRASQTVRNNYLAWYHQKPGQAPRLLIYGASSRATGIPDRFSGSGSGTDFTLTISRLEPEDFTVYYCHQYGNSPWTFGQGTKMEIKR
# B8: H1H21227N-N297D (antibody, human IgG1, V domains shown)
# VH: B6 VH
# VL: B6 VL
# B9: H1H21227N (antibody, human IgG1, V domains shown)
# VH: B6 VH
# VL: B6 VL
# B10: H1H21231N-N297Q (antibody, human IgG1, V domains shown)
# VH: EVQLVESGGGLVQPGGSLRLSCAASGFTFSDHYMDWVRQAPGKGLEWVGRTRNKANSHTTEYTASVTGRFTISRDDSRNSLYLQMNSLKTEDTAVYYCVRAGIIGTLFDYWGQGTLVTVSS
# VL: B6 VL with S7F, N31S, Y32F, Y36F, L46F, T50A, T80P, N94S, F95P
# B11: H1H21231N (antibody, human IgG1, V domains shown)
# VH: B10 VH
# VL: B6 VL with S7F, N31S, Y32F, Y36F, L46F, T50A, T80P, N94S, F95P
# B12: H1H21234N (antibody, human IgG1, V domains shown)
# VH: B7 VH
# VL: B7 VL
# B13: H2aM25690N (antibody, mouse IgG2a, V domains shown)
# VH: EVQLLESGGGLVQPGGSLRLSCAASGFTFSNYAMTWVRQAPGTGLEWVSAISGRGSNTYYTDSVKGRFTISRDNSKNMLYLQMNSLRAEDTASYYCAKDRFTTVGNWFDPWGQGTLVTVSS
# VL: B6 VL with N31S, T50A, S56N, T80P, N94S, F95L, E106D
# B14: H2aM25695N (antibody, mouse IgG2a, V domains shown)
# VH: B7 VH with D58N, T73M, S83N, M85V
# VL: B7 VL with N32S, T85A, H90Q, N94S, P96Y
# B15: H2aM25700N (antibody, mouse IgG2a, V domains shown)
# VH: QVQLVQSGSEVKKPGASVKVSCKVSGYTLTELSIHWVRQAPGKGLEWMGGFDPEDGETIYAQKFRGRVTMTEDISPDTAYMELSSLRSEDTAVYYCATPRYCNNGICYDYWGQGTLVTVSS
# VL: B6 VL with V15I, N31S, K45M, T50A, N94T, F95P
# B16: H2aM21229N (antibody, mouse IgG2a, V domains shown)
# VH: EVQLVESGGGLVKPGGSLRLSCAASGFTFSRYSMNWVRQAPGKGLEWVSSISSSSSYIYYGDTVKGRFTISRDNAKKSLYLQMNSLRAEDTAVYYCVRDRGQLVLYFDYWGQGTLVTVSS
# VL: DIQMTQSPASLSTSIRDRVTITCRASLSISSFLNWFQQRPGKAPKLLIYVASNLQSGVPSRFSDSGSGTDFTLTISSLQPEDFATYYCQQNYSTPPITFGQGTRLEIK
# Target: endogenously expressed human MSR1 on PMA-treated THP-1 cells (human) (UniProt P21757)
# Sequence (P21757 whole entry): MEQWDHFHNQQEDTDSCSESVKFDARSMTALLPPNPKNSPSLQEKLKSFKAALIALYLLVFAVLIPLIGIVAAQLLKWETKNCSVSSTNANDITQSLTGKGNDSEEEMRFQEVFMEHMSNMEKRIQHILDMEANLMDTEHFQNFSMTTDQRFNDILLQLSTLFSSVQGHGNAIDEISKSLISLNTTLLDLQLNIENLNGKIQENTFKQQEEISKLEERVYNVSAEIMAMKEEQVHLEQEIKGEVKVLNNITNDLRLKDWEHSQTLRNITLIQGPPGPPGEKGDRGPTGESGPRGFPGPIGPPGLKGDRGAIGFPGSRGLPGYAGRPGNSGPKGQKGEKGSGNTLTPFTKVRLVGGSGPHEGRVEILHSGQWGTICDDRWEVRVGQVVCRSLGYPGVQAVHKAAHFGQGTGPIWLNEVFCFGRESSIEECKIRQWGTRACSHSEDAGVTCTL
# Experiment: cell-based or functional assay
% Internalization [%],Total Internalized RFU [RFU],Binder
57,3.76e+06,B1
,737000,B2
71.6,4.02e+06,B3
58.2,3.44e+06,B4
90,6.45e+06,B5
78.5,3.23e+06,B6
13.3,723000,B7

# Target: endogenously expressed human MSR1 on PMA-treated THP-1 cells (human) (UniProt P21757)
# Experiment: ECL cell binding, PMA-treated THP-1 cells, 11 nM
row,ratio of binding signal (RLU) to isotype control [fold],Binder
1,8,B1
2,21,B2
3,9,B3
4,13,B4
5,66,B5
6,5,B6
7,25,B7
8,6,B8
9,7,B9
10,45,B10
11,42,B11
12,18,B12
13,25,B13
14,8,B14
15,3,B15
16,56,B16

# Target: endogenously expressed human MSR1 on PMA-treated THP-1 cells (human) (UniProt P21757)
# Experiment: confocal imaging, differentiated THP-1 cells, Alexa 488 secondary
Total Binding at 4° C. (RFU),Total Binding at 37° C. (RFU),Binder
1.93e+06,6.61e+06,B1
483000,1.15e+06,B2
3.7e+06,5.61e+06,B3
2.52e+06,5.92e+06,B4
3.08e+06,7.16e+06,B5
1.8e+06,4.11e+06,B6
1.95e+06,5.45e+06,B7

# — US20190367631A1
